Results: US20180002381A1
pKd: −log10 of the molar value.

Experiments:
[1] = target: Coiled coil domain of Atg4L (Atg14L coiled coil) (Mus musculus (Mouse)) (UniProt Q8CDJ3); test: ITC
[2] = target: Coiled coil domain of UVRAG (228-276) (Mus musculus) (UniProt Q8K245); test: ITC
Coiled coil domain of UVRAG (228-276) (Mus musculus), sequence (Q8K245 other isoform, or with tags, fused parts or gaps limits assumed): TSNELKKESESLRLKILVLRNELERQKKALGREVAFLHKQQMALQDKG

Coiled coil domain of Atg4L (Atg14L coiled coil) (Mus musculus (Mouse)), sequence (Q8CDJ3 other isoform, or with tags, fused parts or gaps limits assumed): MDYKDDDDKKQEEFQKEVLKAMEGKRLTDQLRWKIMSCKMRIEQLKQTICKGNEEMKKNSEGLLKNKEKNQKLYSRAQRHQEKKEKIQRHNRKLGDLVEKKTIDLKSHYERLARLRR

- pKd [1]: 6.30
- pKd [2]: 8.00
- fold stronger than wild-type Beclin1 [2]: 20 times
Substance: Beclin1 mutant L241E/L245E (from UniProt Q91XJ1 174-266)
